Laboratory results: patent US20090221680

Molecular target: thrombin (alpha-thrombin) (Homo sapiens) (UniProt P00734+P00734)
Assay: filter

## ACTGCCTAGGTTGGGTAGGGTGGTGGCAGT [ARC2698]
2'-OMe inosine at 25, rest DNA [25 = 2'-OMe inosine (written as parent base G), rest DNA]
  Kd: 165 pM

## ACTGCCTAGGTTGGGTAGGGTGGTGGCAGT [ARC2678]
Deoxyinosine at 15 [15]
  Kd: 1430 pM

## ACTGCCTAGGTTGGGTAGGGTGGTGGCAGT [ARC2674]
Deoxyinosine at 9 [9]
  Kd: 452 pM

## ACTGCCTAGGTTGGGTAGGGTGGTGGCAGT [ARC2687]
2'-OMe inosine at 4, rest DNA [4]
  Kd: 220 pM

## ACTGCCTAGGTTGGGTAGGGTGGTGGCAGT [ARC2684]
Deoxyinosine at 25 [25]
  Kd: 188 pM

## ACTGCCTAGGTTGGGTAGGGTGGTGGCAGT [ARC2677]
Deoxyinosine at 14 [14]
  Kd: 199 pM

## ACTGCCTAGGTTGGGTAGGGTGGTGGCAGT [ARC2673]
Deoxyinosine at 4 [deoxyinosine at 4 (parent base G)]
  Kd: 207 pM

## ACTGCCTAGGTTGGGTAGGGTGGTGGCAGT [ARC2675]
Deoxyinosine at 10 [10]
  Kd: 2030 pM

## ACTGCCTAGGTTGGGTAGGGTGGTGGCAGT [ARC2685]
Deoxyinosine at 26 [26]
  Kd: 226 pM

## ACTGCCTAGGTTGGGTAGGGTGGTGGCAGT [ARC2697]
2'-OMe inosine at 23, rest DNA [23]
  Kd: 1560 pM

## ACTGCCTAGGTTGGGTAGGGTGGTGGCAGT [ARC2681]
Deoxyinosine at 20 [20]
  Kd: 334 pM

## ACTGCCTAGGTTGGGTAGGGTGGTGGCAGT [ARC2691]
2'-OMe inosine at 14, rest DNA [14]
  Kd: 2280 pM

## ACTGCCTAGGTTGGGTAGGGTGGTGGCAGT [ARC2683]
Deoxyinosine at 23 [23]
  Kd: 151 pM

## ACTGCCTAGGTTGGGTAGGGTGGTGGCAGT [ARC2692]
2'-OMe inosine at 15, rest DNA [15]
  Kd: 1840 pM

## ACTGCCTAGGTTGGGTAGGGTGGTGGCAGT [ARC2680]
Deoxyinosine at 19 [19]
  Kd: 240 pM

## ACTGCCTAGGTTGGGTAGGGTGGTGGCAGT [ARC2695]
2'-OMe inosine at 20, rest DNA [20]
  Kd: 2080 pM

## ACTGCCTAGGTTGGGTAGGGTGGTGGCAGT [ARC2699]
2'-OMe inosine at 26, rest DNA [26 = 2'-OMe inosine (written as parent base G), rest DNA]
  Kd: 128 pM

## ACTGCCTAGGTTGGGTAGGGTGGTGGCAGT [ARC2682]
Deoxyinosine at 22 [22]
  Kd: 1300 pM

## ACTGCCTAGGTTGGGTAGGGTGGTGGCAGT [ARC2676]
Deoxyinosine at 13 [13]
  Kd: 698 pM

## ACTGCCTAGGTTGGGTAGGGTGGTGGCAGT [ARC2686]
Deoxyinosine at 29 [29]
  Kd: 189 pM

## ACTGCCTAGGTTGGGTAGGGTGGTGGCAGT [ARC2679]
Deoxyinosine at 18 [18]
  Kd: 355 pM

## ACTGCCTAGGTTGGGTAGGGTGGTGGCAGT [ARC2700]
2'-OMe inosine at 29, rest DNA [29 = 2'-OMe inosine (written as parent base G), rest DNA]
  Kd: 46 pM
